In the supplement of paper PMC12042874 one finds amyloid nucleation score data, which are given here for 141 substances.

± gives the uncertainty stated by the source.

The data set can be described thus: amyloid nucleation score (Sup35N fusion, yeast selection) (log enrichment); library NNK2; higher = more nucleation; inactive = no reads after selection. The procedure, abridged: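 Sup35N was fused to peptides of 20 random codons and expressed in psi-negative yeast, which were induced with 100 μM copper sulfate for 24 hours and then grown on medium lacking adenine and uracil for 7 days at 30°C. Plasmid inserts from input and output were sequenced on Illumina. The nucleation score is the DiMSum log enrichment of output over input reads, centred on the mode score of non-aggregating sequences. Sequences with under 100 input reads were left out, and random libraries had three technical output replicates.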
The substance LPILCTWLM gave an amyloid nucleation score of -0.347 ± 0.55.
Then RCLSYFGLKLLRVSRLFIDL, with 0.034 ± 0.28; and LIFEEQENAGGMASIMSSMV, with 0.463 ± 0.3.
Regarding SKRDGVSSMIM, the amyloid nucleation score came to 4.25 ± 0.069.
The substance KEMAFVRGMTARPRYNVNSE returned an amyloid nucleation score of 1.22 ± 0.29.
In the case of SNGKYG, the amyloid nucleation score is 1.32 ± 0.26.
As for LMHSQCSFSNELYVDSEARG, the amyloid nucleation score worked out at 0.093 ± 0.38.
Then ASTFYMVGSIG, with 2.8 ± 0.083.
For TWKVDF, the amyloid nucleation score result was “inactive”.
The substance ASILMSRKTMGSNRHCSFVG came in with an amyloid nucleation score of 0.345 ± 0.3.
Substance KNLDQYCCCFNALTLSVSRS registered an amyloid nucleation score of 7.473 ± 0.051.
Take FLYTCF: the amyloid nucleation score turned out to be 0.509 ± 0.25.
The substance SREYHSCKCQMLYMSQWSKG had an amyloid nucleation score of -0.787 ± 0.55.
LIIDSGYPSGS gave an amyloid nucleation score of 0.458 ± 0.8.
PMCISLHVTTKGAMFNRGCF came in with an amyloid nucleation score of 7.18 ± 0.057.
KKFSSMYRSEFGNSI: the amyloid nucleation score was -0.65 ± 0.41.
TRSYQLLLVSLVAGNFVE: the amyloid nucleation score stood at 1.5 ± 0.27.
MSAPRMEQSWEHQQQRDHTC: the amyloid nucleation score stood at 0.661 ± 0.33.
RLSVTLL gave an amyloid nucleation score of -0.157 ± 0.24.
YCPDLLHYHL yielded an amyloid nucleation score of 0.256 ± 0.21.
LNTMPRK displayed an amyloid nucleation score of 0.004 ± 1.1.
On to CHDMSSACLYSVGWS, for which the amyloid nucleation score result is “inactive”.
Consider SVCELKW, for which the amyloid nucleation score was determined as 0.53 ± 0.38.
Then KHSDSTGARQWGNNVYKLDD, with 0.366 ± 0.2; and KSRWRQRILVPIPWWARHVE, with 0.239 ± 0.29.
Take CYKWLAYY: the amyloid nucleation score was -1.44 ± 0.75.
Then TWVGWS, with -0.841 ± 0.79; and NRGSGSAGMVSLLNNSWRWA, with 1.48 ± 0.43.
With NSWFLYRCKFVLRHSYVN, the amyloid nucleation score result was “inactive”.
Under FCFLKFCMLHRLLVFLWRQF stands 1.54 ± 0.11; under IYCHPLRYVLFIVSYRVSSA, 0.259 ± 0.56.
On to DGVSMFWMPHAKRALLYGSY, for which the amyloid nucleation score amounted to 0.063 ± 1.1.
For SSLGIRNCVGTSYVMSPIIV, the amyloid nucleation score worked out at 0.178 ± 0.53.
As for LAQSYVSYS, the amyloid nucleation score was -1.45 ± 0.54.
RTRDPRIFLSVCTGYTRRYY showed an amyloid nucleation score of -1.28 ± 0.76.
Substance TGNTFIPSLFICRIEGSTSA had an amyloid nucleation score of 0.506 ± 0.44.
Turning to DTSIW, the amyloid nucleation score came to 0.114 ± 0.29.
GYMYCISATCRDLSKGRTGT displayed an amyloid nucleation score of -0.221 ± 0.39.
Consider GYYMRLS, for which the amyloid nucleation score entry is “inactive”.
Consider HVTMCKYYFWYMEIVVVKP, for which the amyloid nucleation score was -0.456 ± 0.55.
Substance LPDIFLSVYKLLVYKSLLPA showed an amyloid nucleation score of 0.073 ± 0.53.
For CRTRGMVRLYGTRRK, the amyloid nucleation score entry was “inactive”.
Then LLLNNLVYFSLRVYLLNFCL, with -2.07 ± 0.62; and CLAFNFVFIHPSTGAFSRTS, with 8.38 ± 0.072.
Substance TTDCSNDLSAILVCLSHGAL registered an amyloid nucleation score of -0.19 ± 1.
LNICDLRPLV showed an amyloid nucleation score of -0.93 ± 0.76.
Substance AEQRWTVRIVLSYYVSKINI registered an amyloid nucleation score of 0.316 ± 0.65.
KNFSCVN: the amyloid nucleation score was 0.706 ± 0.74.
For the substance SHTPLTG, the amyloid nucleation score is -0.939 ± 1.
The substance RMNSYKLSKVYNT yielded an amyloid nucleation score of -0.225 ± 1.
In turn, LCVCRPGRRSIYLMVWVWWN showed an amyloid nucleation score of -0.513 ± 0.53.
With KLMVPA, the amyloid nucleation score stood at 0.248 ± 0.28.
Substance WSPLSLVTIELLVQSVIDPF gave an amyloid nucleation score of -0.351 ± 0.48.
YLRCMRSLYSMNLCDAFNAA: the amyloid nucleation score result was “inactive”.
Take CSAATSGYYMSQDRLSDTTT: the amyloid nucleation score is -0.184 ± 1.1.
Then RCLPISTIVF, with 2.43 ± 0.16; and WTYPLC, with -0.744 ± 1.1.
Turning to RMSVWNNECTWTSSVSVHPK, the amyloid nucleation score was 2.37 ± 0.1.
With LSLALDRQELAVHLFVLTCY, the amyloid nucleation score amounted to 0.829 ± 0.57.
Then IVYLWRNRWVDLADYLLHVM, with 0.313 ± 0.29; and LLMLVSFLIDDEAFSVFDLL, with 0.672 ± 0.39; and MQSINVNNVKTSTRPFFVNR, with “inactive”.
Turning to SMFSRRNIQKSCFCYWNRLC, the amyloid nucleation score was -0.418 ± 1.1.
With IDLWWSATHVTLLLSAPGIY, the amyloid nucleation score was -1.09 ± 0.42.
Under NWKANYEFVRLIVVLLSSRR stands 0.202 ± 0.64; under HNPSIAARCGGICYDNITVW, 0.838 ± 0.51; under RYLSTLSVLYRTTSCRA, “inactive”.
As to DRRPNCIFLDGSYRRDV, the amyloid nucleation score was found to be 0.034 ± 1.1.
As to NVVGRYKSSDSLTYARWGWR, the amyloid nucleation score was -0.064 ± 0.34.
Turning to DATNQRYVPRLFHKMSITGS, the amyloid nucleation score was 0.848 ± 0.57.
In turn, YGGPGRNKGPNSCRSTATSV gave an amyloid nucleation score of 1.02 ± 0.17.
Regarding GHPSIDAQTPV, the amyloid nucleation score was determined as 1.39 ± 0.47.
LMYCI registered an amyloid nucleation score of -0.211 ± 0.76.
In turn, CDMEHTV returned an amyloid nucleation score of -0.302 ± 0.61.
In turn, SCGIVRERFIVFELWSVCSG gave an amyloid nucleation score of -0.147 ± 0.42.
For QLPSR, the amyloid nucleation score is -0.243 ± 0.31.
SNYGTGDGCCVGV returned an amyloid nucleation score of 1.81 ± 0.099.
As for FLNFIFELSSWMDF, the amyloid nucleation score was -1.6 ± 1.1.
With GYNLKILESIMEGSAGLMCT, the amyloid nucleation score is -0.779 ± 0.33.
In turn, MVWSSRDS yielded an amyloid nucleation score of -0.548 ± 0.54.
Under LWVSVLFKMHAYWLGLEPNS stands 2 ± 0.15; under RQLAFFLIYPHGASVTYWAP, -0.956 ± 1.1; under WNVMHI, 0.358 ± 0.64.
Take HFCVLLLSFKNKILNYAFMH: the amyloid nucleation score was -0.393 ± 1.1.
Regarding ICFIVSSFRY, the amyloid nucleation score is 2.58 ± 0.23.
Under YAFSCFKSNVFWKGTGNRRG stands -0.973 ± 0.63; under MGLSTRLH, “inactive”; under TLGGSSTFRY, -0.152 ± 0.45.
In turn, NSIVWGIHGFVLTLVFFTCF came in with an amyloid nucleation score of -0.849 ± 1.
MLRNWLCRY yielded an amyloid nucleation score of 2.02 ± 0.42.
Turning to GSMSTSASVRPFWRYVFLH, the amyloid nucleation score result was “inactive”.
On to LSVDQSSSELSTDLFDFLHF, for which the amyloid nucleation score result was “inactive”.
As for GWFMNCTLVVKVTDTEIGLY, the amyloid nucleation score entry is “inactive”.
Substance SYFYPCLRNLYLPLWWRSHS registered an amyloid nucleation score of -0.515 ± 0.38.
PLRVRNNGGTVDKFLLRVFE came in with an amyloid nucleation score of 0.489 ± 0.4.
Under MLIIKVLCSMCIVIFLTLIC stands 2.55 ± 0.18; under PSNLKFKYSCFLLNKCMGVR, 0.153 ± 0.43.
Turning to VCRDYGVMSMRRDWLCRMSL, the amyloid nucleation score turned out to be 0.391 ± 0.65.
As for SVVVDIKGVDWVVRVLVGKR, the amyloid nucleation score is -0.484 ± 0.65.
As to QIIRPCVRRDKTGFIALVMG, the amyloid nucleation score is 1.27 ± 0.49.
Then DCLGVSFNDFQFLLVSAITR, with “inactive”; and WYYGLTPSQACGGEIPCDFQ, with 6.523 ± 0.056.
Consider FGINSLYINKWSDRLRQCTR, for which the amyloid nucleation score is -0.142 ± 0.79.
NSCSWDSIITLVVQWLARQH gave an amyloid nucleation score of 6.342 ± 0.039.
For VSASEEVPAFCCVTVAQ, the amyloid nucleation score was -0.195 ± 0.61.
Under ILIRLLGSRKQSWNYEIKVL stands -0.645 ± 0.37.
Substance EDVDICRHFYRGVVNNGYQR gave an amyloid nucleation score of 0.328 ± 0.57.
Take VNVGKCNRTVGIWLLWKVNA: the amyloid nucleation score was found to be 0.584 ± 0.44.
Take KTIPSGVVGWVSEGQRSTNR: the amyloid nucleation score is 7.87 ± 0.08.
KLHSVQLNTRVLIN returned an amyloid nucleation score of 0.219 ± 0.26.
Then RCFNLWSNSVLFNCSVCSAE, with 7.414 ± 0.065.
CYLYFIEYWFSEAPYFTSER registered an amyloid nucleation score of -0.959 ± 1.1.
On to SFVAAEQIMASIEW, for which the amyloid nucleation score amounted to 0.706 ± 0.29.
FEDIFCWVY yielded an amyloid nucleation score of -1.79 ± 0.76.
For VNNGLPDCFSLRYAVHPMRL, the amyloid nucleation score was -0.526 ± 0.64.
As for GACVAKATF, the amyloid nucleation score amounted to 0.616 ± 0.19.
Then LLDACHLGNWTAGNGYYDRV, with -0.531 ± 1.1.
For YSSGF, the amyloid nucleation score was -0.384 ± 0.39.
In the case of MTIVVSDCTSVSDVFIGLGN, the amyloid nucleation score came out at 2.29 ± 0.076.
Regarding LSRCWVMSQQCKKSAGVFYA, the amyloid nucleation score is -0.026 ± 0.55.
For the substance CNYYFVKYQGINGCGTPVKF, the amyloid nucleation score was determined as 3.01 ± 0.12.
The substance YCYARD showed an amyloid nucleation score of -0.172 ± 1.1.
Regarding WNAHN, the amyloid nucleation score was -0.081 ± 1.1.
On to NHKAIYLRPSSTNPEILSRA, for which the amyloid nucleation score was determined as 1.15 ± 0.47.
On to SYDDVVILDFYDGIL, for which the amyloid nucleation score entry is “inactive”.
Substance YRSWIGYCSNDVSQTLCTVM returned an amyloid nucleation score of 9.164 ± 0.024.
The substance IIFDNFLEMVAILWLLVCCY yielded an amyloid nucleation score of -1.66 ± 0.76.
SLEGLLRPRKLVSCIDT: the amyloid nucleation score entry was “inactive”.
Substance KSINNC showed an amyloid nucleation score of 0.181 ± 0.26.
As for TTLRCHLIESKWGYVRRLTW, the amyloid nucleation score was 4.33 ± 0.088.
The substance SISCSADFVFNCSHGHNTVP registered an amyloid nucleation score of 6.17 ± 0.069.
Under LFLQGRNQLDTHWFCPACPM stands -0.727 ± 0.55; under ASASSVIAMRNRMGGLNRFC, -0.302 ± 0.24.
GSYHFHASNTD: the amyloid nucleation score was -0.555 ± 0.79.
SSRDKILTSMKIWMLRFLAN gave an amyloid nucleation score of 0.37 ± 0.51.
Substance KCCVENCRWHGRLSSLLFAM came in with an amyloid nucleation score of 0.576 ± 0.34.
In turn, NLRSYIRGSLFGFCSRLWEN showed an amyloid nucleation score of 3.09 ± 0.08.
For the substance RLDSMMVAYNAT, the amyloid nucleation score stood at 0.724 ± 0.81.
Under FEYLYYIDIYLWYCEGRVAK stands -0.661 ± 0.54.
The substance NVRDYRIFDL came in with an amyloid nucleation score of -0.877 ± 0.78.
Regarding VAGDLGGRSELLARIRSGHA, the amyloid nucleation score result was “inactive”.
